According to publication PMC5300155, “Biochemical and biophysical investigations of the interaction between human glucokinase and pro-apoptotic BAD” (PLoS ONE, 2017):

How the values were obtained:
[1] = biological target: recombinant human Bcl-xL, Δ45–84, Δ210–233 variant (human) (UniProt Q07817); assay: fluorescence polarisation; competition: 200 nM f-BH3, 50 nM Bcl-xL, BAD forms varied 0–50 μM; room temperature
[2] = biological target: T1, recombinant human Bcl-xL, Δ45–84, Δ210–233 variant (human, UniProt Q07817-1 1-209, Δ45–84); assay: as above; details: both partners purified
T1 construct: Bcl-xL, human; loop 45-84 deleted and C-terminal residues 210-233 lacking; also called soluble, recombinant Bcl-xL
T1 sequence (Q07817 other isoform, or with tags, fused parts or gaps Δ45–84 | Δ45–84 | mutant): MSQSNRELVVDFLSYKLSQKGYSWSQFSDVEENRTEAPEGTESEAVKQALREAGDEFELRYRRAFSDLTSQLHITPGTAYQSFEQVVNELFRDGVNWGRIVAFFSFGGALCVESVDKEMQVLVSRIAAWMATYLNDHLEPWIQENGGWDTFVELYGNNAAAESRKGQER

[3] = biological target: T2, human pancreatic GCK (Homo sapiens, UniProt P35557); assay: GCK activity, G6PDH-linked assay (lab's routine assay, 25°C); assay type: biochemical; details: for Increase in GCK activity relative to unmodified / wild-type protein: only at glucose concentrations below K0.5 (3SD, 3SA), phosphorylated BAD after cleavage of GST tag
T2 construct: hexahistidine (N); made in house; host or cells: glucokinase auxotroph BM5340(DE3)
T2 sequence (P35557 1-465): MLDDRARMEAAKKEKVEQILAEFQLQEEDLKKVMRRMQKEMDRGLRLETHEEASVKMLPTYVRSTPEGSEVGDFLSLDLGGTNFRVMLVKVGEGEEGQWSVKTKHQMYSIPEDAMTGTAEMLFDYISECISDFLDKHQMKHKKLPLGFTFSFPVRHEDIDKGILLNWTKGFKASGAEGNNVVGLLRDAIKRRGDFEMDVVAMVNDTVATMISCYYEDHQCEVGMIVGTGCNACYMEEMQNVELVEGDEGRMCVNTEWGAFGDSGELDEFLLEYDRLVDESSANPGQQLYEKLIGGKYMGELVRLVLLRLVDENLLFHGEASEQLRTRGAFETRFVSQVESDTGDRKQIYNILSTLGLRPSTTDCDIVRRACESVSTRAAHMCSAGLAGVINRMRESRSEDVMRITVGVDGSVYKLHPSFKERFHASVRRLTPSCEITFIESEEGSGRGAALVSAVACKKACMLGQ
Protocol: Recombinant human pancreatic GCK containing an N-terminal hexahistidine tag was produced in the glucokinase auxotroph BM5340(DE3) and purified using a previously described procedure. TEV protease was expressed as a GST-fusion protein from a pGEX plasmid encoding the S219V variant, provided by David Waugh (Addgene plasmid 8827). Expression was induced with IPTG (1 mM) for 4 h at 30°C. Cell pellets were resuspended in Tris buffer (50 mM, pH 8.0) containing NaCl (100 mM), glycerol (10% v/v), benzamidine (1 mM) and dithiothreitol (10 mM) and lysed via French Press. Polyethyleneimine (0.1%) was added to the lysate and protein was purified on a glutathione-affinity column (GSTrap, GE Sciences). TEV protease was flash frozen and stored at -80°C for up to 1 month.
GCK activity was assayed using a glucose 6-phosphate dehydrogenase (G6PDH)-linked assay at 25°C. 50 nM GCK was assayed in buffer containing HEPES (100 mM, pH 7.4), KCl (50 mM), NADP^+ (0.5 mM), DTT (10 mM), MgCl2 (7 mM), G6PDH (1.5 U) and glucose (0–100 mM) in a total volume of […]. Addition of ATP (6 mM) initiated the reaction. Production of NADPH was measured at 340 nm. To determine the effect of BAD on GCK activity, 5 μL of BAD or buffer control was added to the reaction in a final volume of 100 μL. K0.5 values were determined by fitting to the Hill equation. The effect of BAD on GCK activity is reported as the percent rate increase at individual glucose concentrations, calculated as the average of a minimum of four rates of BAD-containing assays divided by the average of rates of BAD buffer-containing assays. The results represent the average of at least three independent preparations of pure BAD.

recombinant human Bcl-xL, Δ45–84, Δ210–233 variant (human), sequence (Q07817 other isoform, or with tags, fused parts or gaps mutant): as the sequence (Q07817 other isoform, or with tags, fused parts or gaps Δ45–84 | Δ45–84 | mutant) above

Molecule	IC50 [2] [µM]	Increase in GCK activity relative to unmodified / wild-type protein [3]	other results
BAD following cleavage and removal of the GST tag (from UniProt Q92934 1-168) (natural protein)			IC50 [1]: 440 nM
S75D-S99D-S118D triple variant of BAD-GST (natural protein, human, UniProt Q92934 1-168, looked up, BAD, human; 507 bp bad cDNA amplified from the IMAGE clone; triple phosphomimic; also called 3SD; source: E. coli BL21(DE3), purified as BAD-GST; not shown: GST, C-terminal, kept) MFQIPEFEPSEQEDSSSAERGLGPSPAGDGPSGSGKHHRQAPGLLWDASHQQEQPTSSSHHGGAGAVEIRSRHSDYPAGTEDDEGMGEEPSPFRGRSRDAPPNLWAAQRYGRELRRMDDEFVDSFKKGLPRPKSAGTATQMRQSSSWTRVFQSWWDRNLGRGSSAPSQ	> 19		
S75D-S99D double variant of BAD-GST (natural protein, human, UniProt Q92934 1-168, looked up, BAD, human; 507 bp bad cDNA amplified from the IMAGE clone; double phosphomimic; source: E. coli BL21(DE3), purified as BAD-GST; not shown: GST, C-terminal, kept) MFQIPEFEPSEQEDSSSAERGLGPSPAGDGPSGSGKHHRQAPGLLWDASHQQEQPTSSSHHGGAGAVEIRSRHSDYPAGTEDDEGMGEEPSPFRGRSRDAPPNLWAAQRYGRELRRMSDEFVDSFKKGLPRPKSAGTATQMRQSSSWTRVFQSWWDRNLGRGSSAPSQ	0.087		
S118D BAD-GST variant (natural protein, human, UniProt Q92934 1-168, looked up, BAD, human; 507 bp bad cDNA amplified from the IMAGE clone; phosphomimic; also called S118D variant; BAD-GST S118D; source: E. coli BL21(DE3), purified as BAD-GST; not shown: GST, C-terminal, kept) MFQIPEFEPSEQEDSSSAERGLGPSPAGDGPSGSGKHHRQAPGLLWDASHQQEQPTSSSHHGGAGAVEIRSRHSSYPAGTEDDEGMGEEPSPFRGRSRSAPPNLWAAQRYGRELRRMDDEFVDSFKKGLPRPKSAGTATQMRQSSSWTRVFQSWWDRNLGRGSSAPSQ	> 15		
phosphorylated BAD: phosphorylated BAD after cleavage of the GST tag (protein, phosphoserine at 75, 99 and 118 (by PKA, as for phosphorylated BAD-GST); left off: His6, N-terminal, state not stated | GST, C-terminal, cleaved, phosphorylated BAD after cleavage of the GST tag) MFQIPEFEPSEQEDSSSAERGLGPSPAGDGPSGSGKHHRQAPGLLWDASHQQEQPTSSSHHGGAGAVEIRSRHSSYPAGTEDDEGMGEEPSPFRGRSRSAPPNLWAAQRYGRELRRMSDEFVDSFKKGLPRPKSAGTATQMRQSSSWTRVFQSWWDRNLGRGSSAPSQ		to a similar extent as unmodified BAD	
S75D-S99D-S118D triple variant of BAD-GST: S75D-S99D-S118D triple variant of BAD-GST, mimics fully phosphorylated protein (protein, left off: His6, N-terminal, state not stated | GST, C-terminal, kept, S75D-S99D-S118D triple variant of BAD-GST, mimics fully phosphorylated protein) MFQIPEFEPSEQEDSSSAERGLGPSPAGDGPSGSGKHHRQAPGLLWDASHQQEQPTSSSHHGGAGAVEIRSRHSDYPAGTEDDEGMGEEPSPFRGRSRDAPPNLWAAQRYGRELRRMDDEFVDSFKKGLPRPKSAGTATQMRQSSSWTRVFQSWWDRNLGRGSSAPSQ		to the same relative extent as wild-type BAD-GST	Activation of GCK by triple variant ([3]; 0.78 mM glucose, > 2 μM, comparable to phosphorylated BAD (15%)): A comparable degree of activation
3SA: BAD-GST variant in which alanine was substituted at the three target serine residues (protein, left off: His6, N-terminal, state not stated | GST, C-terminal, kept, BAD-GST variant in which alanine was substituted at the three target serine residues) MFQIPEFEPSEQEDSSSAERGLGPSPAGDGPSGSGKHHRQAPGLLWDASHQQEQPTSSSHHGGAGAVEIRSRHSAYPAGTEDDEGMGEEPSPFRGRSRAAPPNLWAAQRYGRELRRMADEFVDSFKKGLPRPKSAGTATQMRQSSSWTRVFQSWWDRNLGRGSSAPSQ		to the same relative extent as wild-type BAD-GST	
